US20110142868A1 (CHIRALIX B V, published 2011)
Numbered stars: 1 amine (or outer) side, 2 acyl side, 3 side chain; on linkers, the order of the positions; unused ones are H or OH. Square brackets hold non-standard residues; d marks the D form. Ends that are not written are not given here. * marks the point of attachment. O(CA) = ornithine chloroamidine, N=C(CCl)NCCC[C@H](N[*:1])C(=O)[*:2]; Orn(fluoroacetimidoyl) = N=C(CF)NCCC[C@H](N)C(=O)O; Moc = COC(=O)*

T1: papain (UniProt P00784 134-345)
T1 sequence (looked up): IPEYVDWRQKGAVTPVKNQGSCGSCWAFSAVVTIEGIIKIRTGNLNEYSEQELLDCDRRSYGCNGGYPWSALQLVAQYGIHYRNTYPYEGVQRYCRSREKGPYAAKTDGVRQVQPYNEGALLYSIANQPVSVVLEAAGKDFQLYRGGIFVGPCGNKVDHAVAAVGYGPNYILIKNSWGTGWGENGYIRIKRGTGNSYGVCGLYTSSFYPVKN

B1: 0743-58FA (peptide)
peptide: Ac-KFD[Orn(fluoroacetimidoyl)]DFI-NH2
SMILES: CC[C@H](C)[C@H](NC(=O)[C@H](Cc1ccccc1)NC(=O)[C@H](CC(=O)O)NC(=O)[C@H](CCCNC(=N)CF)NC(=O)[C@H](CC(=O)O)NC(=O)[C@H](Cc1ccccc1)NC(=O)[C@H](CCCCN)NC(C)=O)C(N)=O
B2: 0748-09FA (peptide)
peptide: Ac-KWH[Orn(fluoroacetimidoyl)]DFF-NH2
SMILES: CC(=O)N[C@@H](CCCCN)C(=O)N[C@@H](Cc1c[nH]c2ccccc12)C(=O)N[C@@H](Cc1c[nH]cn1)C(=O)N[C@@H](CCCNC(=N)CF)C(=O)N[C@@H](CC(=O)O)C(=O)N[C@@H](Cc1ccccc1)C(=O)N[C@@H](Cc1ccccc1)C(N)=O
B3: CXP5-101 (peptide)
peptide: Moc-TD[Orn(fluoroacetimidoyl)]GS-OMe
SMILES: COC(=O)N[C@H](C(=O)N[C@@H](CC(=O)O)C(=O)N[C@@H](CCCNC(=N)CF)C(=O)NCC(=O)N[C@@H](CO)C(=O)OC)[C@@H](C)O

Legend:
Experiment in all cases: cell-based or functional assay
recombinant human PAD2 [1] = target: T2, recombinant human PAD2 (human, UniProt Q9Y2J8 1-665)
[2] = target: human N(G),N(G)-dimethyl-L-arginine dimethylaminohydrolase isotype 1 (human, UniProt O94760 1-285)
caspase-3 = target: caspase-3
recombinant human PAD4 [3] = target: T3, recombinant human PAD4 (human, UniProt Q9UM07 1-663)
transglutaminase = target: transglutaminase
recombinant human PAD2 [4] = target: T2, recombinant human PAD2; remark: listed apart in the source
papain = target: T1, papain
creatine kinase = target: creatine kinase
recombinant human PAD2 [5] = target: T2, recombinant human PAD2; remark: listed apart in the source
recombinant human PAD4 [6] = target: T3, recombinant human PAD4; remark: listed apart in the source
recombinant human PAD4 [7] = target: T3, recombinant human PAD4; remark: listed apart in the source
recombinant human PAD4 [8] = target: T3, recombinant human PAD4; remark: listed apart in the source
recombinant human PAD2 [9] = target: T2, recombinant human PAD2; remark: listed apart in the source
recombinant human PAD4 [10] = target: T3, recombinant human PAD4; remark: listed apart in the source
recombinant human PAD2 [11] = target: T2, recombinant human PAD2; remark: listed apart in the source

T3 sequence (Q9UM07 whole entry): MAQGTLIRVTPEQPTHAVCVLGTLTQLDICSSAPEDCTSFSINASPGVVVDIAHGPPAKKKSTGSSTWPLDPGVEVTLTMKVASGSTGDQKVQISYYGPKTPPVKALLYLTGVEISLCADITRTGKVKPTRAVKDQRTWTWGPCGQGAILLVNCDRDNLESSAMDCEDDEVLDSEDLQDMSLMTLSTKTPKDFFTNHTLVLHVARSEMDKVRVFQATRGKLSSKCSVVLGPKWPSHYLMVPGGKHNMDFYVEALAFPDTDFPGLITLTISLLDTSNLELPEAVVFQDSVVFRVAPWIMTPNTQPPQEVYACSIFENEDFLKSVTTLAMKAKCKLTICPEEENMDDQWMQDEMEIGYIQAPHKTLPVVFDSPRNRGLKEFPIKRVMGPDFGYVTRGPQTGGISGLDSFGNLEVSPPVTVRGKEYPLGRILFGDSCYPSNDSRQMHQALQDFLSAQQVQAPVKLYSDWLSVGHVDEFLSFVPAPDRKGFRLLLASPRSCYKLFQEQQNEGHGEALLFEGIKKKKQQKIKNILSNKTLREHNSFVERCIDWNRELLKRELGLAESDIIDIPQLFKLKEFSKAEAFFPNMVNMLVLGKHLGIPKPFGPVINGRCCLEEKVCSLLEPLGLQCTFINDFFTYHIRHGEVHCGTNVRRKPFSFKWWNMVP
T2 sequence (Q9Y2J8 whole entry): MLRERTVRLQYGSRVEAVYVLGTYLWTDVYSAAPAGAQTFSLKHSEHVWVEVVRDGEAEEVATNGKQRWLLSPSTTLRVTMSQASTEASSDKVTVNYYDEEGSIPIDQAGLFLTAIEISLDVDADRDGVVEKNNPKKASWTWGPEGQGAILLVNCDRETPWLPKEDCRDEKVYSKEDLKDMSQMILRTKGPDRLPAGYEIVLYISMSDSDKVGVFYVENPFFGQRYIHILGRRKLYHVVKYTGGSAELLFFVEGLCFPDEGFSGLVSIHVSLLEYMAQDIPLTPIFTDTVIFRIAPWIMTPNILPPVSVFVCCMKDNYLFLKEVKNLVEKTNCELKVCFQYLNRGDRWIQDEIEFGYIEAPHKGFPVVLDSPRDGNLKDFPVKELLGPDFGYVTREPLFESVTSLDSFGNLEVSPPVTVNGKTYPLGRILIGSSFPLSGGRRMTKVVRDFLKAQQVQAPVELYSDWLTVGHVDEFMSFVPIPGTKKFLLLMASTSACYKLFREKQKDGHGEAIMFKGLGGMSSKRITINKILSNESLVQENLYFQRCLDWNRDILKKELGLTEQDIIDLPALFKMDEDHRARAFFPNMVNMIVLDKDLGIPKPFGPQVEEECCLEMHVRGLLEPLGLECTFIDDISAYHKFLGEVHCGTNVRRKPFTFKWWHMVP
Chain of human N(G),N(G)-dimethyl-L-arginine dimethylaminohydrolase isotype 1 (O94760 whole entry): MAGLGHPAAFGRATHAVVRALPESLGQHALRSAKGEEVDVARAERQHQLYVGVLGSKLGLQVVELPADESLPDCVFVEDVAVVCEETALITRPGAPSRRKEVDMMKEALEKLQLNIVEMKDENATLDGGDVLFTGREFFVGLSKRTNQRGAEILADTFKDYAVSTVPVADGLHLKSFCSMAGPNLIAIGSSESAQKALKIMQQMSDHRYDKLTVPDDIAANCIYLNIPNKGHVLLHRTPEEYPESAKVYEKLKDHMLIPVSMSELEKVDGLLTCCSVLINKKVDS

Binder	IC50 values (µM), hDDAH-1 activity assay [2] [µM]	IC50 values (µM), caspase-3 activity assay (caspase-3) [µM]	IC50 values (µM), colorimetric assay (recombinant human PAD4 [3]) [µM]	IC50 values (µM), transglutaminase activity assay (transglutaminase) [µM]	IC50 values (µM), colorimetric assay (recombinant human PAD2 [4]) [µM]	IC50 values (µM), papain activity assay (papain) [µM]	IC50 values (µM), creatine kinase activity assay (creatine kinase) [µM]	IC50 values (µM), ABAP PAD activity assay, second round (recombinant human PAD4 [8]) [µM]	IC50 values (µM), ABAP PAD activity assay, second round (recombinant human PAD2 [9]) [µM]	also measured
B1	> 2000	920	6	1000	35	> 2000	800			Inhibition of PAD2: value at 10 µM inhibitor (0 µM: 74) (recombinant human PAD2 [1]): 39%; Inhibition of PAD2: value at 20 µM inhibitor (0 µM: 74) (recombinant human PAD2 [1]): 26%; Inhibition of PAD2: value at 40 µM inhibitor (0 µM: 74) (recombinant human PAD2 [1]): 15%; Inhibition of PAD2: value at 80 µM inhibitor (0 µM: 74) (recombinant human PAD2 [1]): 9%; conversion of 0708-30 by PAD2, 10 µM inhibitor (0 µM: 68) (recombinant human PAD2 [5]): 33%; conversion of 0708-30 by PAD2, 50 µM inhibitor (0 µM: 68) (recombinant human PAD2 [5]): 8%; conversion of 0708-30 by PAD2, 100 µM inhibitor (0 µM: 68) (recombinant human PAD2 [5]): 4%; conversion of 0708-30 by PAD4, 10 µM inhibitor (0 µM: 81) (recombinant human PAD4 [6]): 38%; conversion of 0708-30 by PAD4, 50 µM inhibitor (0 µM: 81) (recombinant human PAD4 [6]): 19%; conversion of 0708-30 by PAD4, 100 µM inhibitor (0 µM: 81) (recombinant human PAD4 [6]): 10%; Inhibition of PAD4: value at 10 µM inhibitor (0 µM: 71) (recombinant human PAD4 [7]): 46%; Inhibition of PAD4: value at 20 µM inhibitor (0 µM: 71) (recombinant human PAD4 [7]): 36%; Inhibition of PAD4: value at 40 µM inhibitor (0 µM: 71) (recombinant human PAD4 [7]): 18%; Inhibition of PAD4: value at 80 µM inhibitor (0 µM: 71) (recombinant human PAD4 [7]): 13%
Ac-GD[O(CA)]GS [CXP5.2-078]	1200	1000	18	730	> 500	1050	780			
B2		> 1000		> 1000		> 2000	1000			Inhibition of PAD2: value at 10 µM inhibitor (0 µM: 76) (recombinant human PAD2 [1]): 25%; Inhibition of PAD2: value at 20 µM inhibitor (0 µM: 76) (recombinant human PAD2 [1]): 14%; Inhibition of PAD2: value at 40 µM inhibitor (0 µM: 76) (recombinant human PAD2 [1]): 8%; Inhibition of PAD2: value at 80 µM inhibitor (0 µM: 76) (recombinant human PAD2 [1]): 4%; conversion of 0708-30 by PAD2, 10 µM inhibitor (0 µM: 68) (recombinant human PAD2 [5]): 23%; conversion of 0708-30 by PAD2, 50 µM inhibitor (0 µM: 68) (recombinant human PAD2 [5]): 6%; conversion of 0708-30 by PAD2, 100 µM inhibitor (0 µM: 68) (recombinant human PAD2 [5]): 5%; conversion of 0708-30 by PAD4, 10 µM inhibitor (0 µM: 81) (recombinant human PAD4 [6]): 51%; conversion of 0708-30 by PAD4, 50 µM inhibitor (0 µM: 81) (recombinant human PAD4 [6]): 22%; conversion of 0708-30 by PAD4, 100 µM inhibitor (0 µM: 81) (recombinant human PAD4 [6]): 13%; Inhibition of PAD4: value at 10 µM inhibitor (0 µM: 67) (recombinant human PAD4 [7]): 51%; Inhibition of PAD4: value at 20 µM inhibitor (0 µM: 67) (recombinant human PAD4 [7]): 38%; Inhibition of PAD4: value at 40 µM inhibitor (0 µM: 67) (recombinant human PAD4 [7]): 27%; Inhibition of PAD4: value at 80 µM inhibitor (0 µM: 67) (recombinant human PAD4 [7]): 18%
KWH[Orn(fluoroacetimidoyl)]DFF [K W H O(FA) D F F]								161	16	
B3	> 2000	> 1000	10	600	35	> 2000	780			
TD[Orn(fluoroacetimidoyl)]GS [T-D-O(FA)-G-S]								129	49	IC50 values (µM), ABAP PAD activity assay (recombinant human PAD4 [10]): 58 µM; IC50 values (µM), ABAP PAD activity assay (recombinant human PAD2 [11]): 19 µM
KFD[Orn(fluoroacetimidoyl)]DFI [K F D O(FA) D F I]								122	17	
Ac-YD[O(CA)]GS [CXP5.2-081]	1330	> 1000	10	> 1000	200	> 2000	1000			
